Where two headings read alike, the source gives them in different places.
How the values were obtained:
Myc-RTA (IVT) [1] = molecular target: T1, Myc-RTA (IVT) (Kaposi's sarcoma-associated herpesvirus …, UniProt F5HCV3 1-691); assay: EMSA
Myc-RTA (IVT) [2] = molecular target: T1, Myc-RTA (IVT); assay: EMSA; remark: listed apart in the source

T1 sequence (F5HCV3 whole entry): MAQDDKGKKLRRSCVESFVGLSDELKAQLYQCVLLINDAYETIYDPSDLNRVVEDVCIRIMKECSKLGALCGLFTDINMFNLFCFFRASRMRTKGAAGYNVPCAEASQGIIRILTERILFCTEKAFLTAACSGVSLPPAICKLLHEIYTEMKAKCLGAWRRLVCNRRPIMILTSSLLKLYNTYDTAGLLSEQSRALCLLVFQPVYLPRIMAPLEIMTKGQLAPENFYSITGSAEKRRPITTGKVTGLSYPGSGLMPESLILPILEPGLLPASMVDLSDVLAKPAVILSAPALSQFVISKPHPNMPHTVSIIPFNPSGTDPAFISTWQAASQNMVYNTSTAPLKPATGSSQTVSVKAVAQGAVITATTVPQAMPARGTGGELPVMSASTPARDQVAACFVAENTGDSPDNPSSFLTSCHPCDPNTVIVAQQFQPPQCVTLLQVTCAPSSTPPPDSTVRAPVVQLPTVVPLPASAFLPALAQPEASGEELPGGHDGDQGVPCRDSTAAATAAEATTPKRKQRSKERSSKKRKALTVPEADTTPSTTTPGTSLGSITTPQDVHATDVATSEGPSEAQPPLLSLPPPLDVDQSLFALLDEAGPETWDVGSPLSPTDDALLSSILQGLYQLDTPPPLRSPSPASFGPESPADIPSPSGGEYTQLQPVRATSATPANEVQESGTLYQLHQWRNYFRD

Binder | binding result (Myc-RTA (IVT) [1]) | binding result (Myc-RTA (IVT) [2])
59pA (dsDNA) DNA 1: ACACCACGTGTGTGACTGACGATTTGTGAAGGTTAACCTGTCCATGTCGC DNA 2: GCGACATGGACAGGTTAACCTTCACAAATCGTCAGTCACACACGTGGTGT | binds | –
59pF (minimal RRE) (dsDNA) DNA 1: CGATTTGTGAAGGTTAACCTGTCCATG DNA 2: CATGGACAGGTTAACCTTCACAAATCG | – | binds

— PMC5868747
